Legend:
[1] = target: His6-tagged sCD4 (D1-D2); experiment: BLI
[2] = target: LT5.J4b12C SOSIP.664 trimeric Env (HIV-1 B/C recombinant, soluble gp140) (HIV-1); experiment: negative-stain EM

Substance “LT5.J4b12C SOSIP.664 trimeric Env (HIV-1 B/C recombinant, soluble gp140) (complex)” has a fold lower affinity than BG505 SOSIP.664 [1] of 3 fold and a stoichiometry N [2] of 3.
